The text below walks through data of patent WO2017102789A1 (dated 2017).

The target of this test is T1, human HER3 ECD (human, UniProt P21860 20-643).
T1 construct: also called hHER3-ECD; hu-HER3-ECD
In words: SPR (Biacore T100), antibody captured by anti-Fc gamma antibody, human HER3 ECD 0-1000 nM as analyte, 25°C, Langmuir 1:1 model.

B1: Mab 205.10.1 (antibody, V domains shown)
VH: QVQLVQSGAEVKKPGASVKVSCKASGYTFRSSYISWVRQAPGQGLEWMGWIYAGTGSPSYNQKLQGRVTMTTDTSTSTAYMELRSLRSDDTAVYYCARHRDYYSNSLTYWGQGTLVTVSS
VL: DIVMTQSPDSLAVSLGERATINCKSSQSLLNSGNQKNYLTWYQQKPGQPPKLLIYWASTRESGVPDRFSGSGSGTDFTLTISSLQAEDVAVYYCQSDYSYPYTFGQGTKLEIK
notes: Humanized anti-HER3 antibody; Only variable domains are tied to it
With B1, the affinity, expressed as Kd, was 2 nM.

B2: Mab 205.10.3 (antibody, V domains shown)
VH: QVQLVQSGAEVKKPGASVKVSCKASGYTFRSSYISWVRQAPGQGLEWMGWIYAGTGSPSYNQKLQGRVTMTTDTSTSTAYMELRSLRSDDTAVYYCARHRDYYSNSLTYWGQGTLVTVSS
VL: DIVMTQSPDSLAVSLGERATINCKSSQSLLNSGNQKNYLTWYQQKPGQPPKLLIYWASTRESGVPDRFSGSGSGTDFTLTISSLQAEDVSIYYCQSDYSYPYTFGQGTKLEIK
notes: as for B1
For the molecule B2, the equilibrium dissociation constant (Kd) was 2 nM.
